{"source": "patent US20120129159A1", "about": "(MIT, published 2012)", "binders": {"B1": {"name": "LplAW37V (protein)", "chain": "STLRLLISDSYDPWFNLAVEECIFRQMPATQRVLFLVRNADTVVIGRAQNPWKECNTRRMEEDNVRLARRSSGGGAVFHDLGNTCFTFMAGKPEYDKTISTSIVLNALNALGVSAEASGRNDLVVKTVEGDRKVSGSAYRETKDRGFHHGTLLLNADLSRLANYLNPDKKKLAAKGITSVRSRVTNLTELLPGITHEQVCEAITEAFFAHYGERVEAEIISPNKTPDLPNFAETFARQSSWEWNFGQAPAFSHLLDERFTWGGVELHFDVEKGHITRAQVFTDSLNPAPLEALAGRLQGCLYRADMLQQECEALLVDFPEQEKELRELSAWMAGAVR"}, "B2": {"name": "FRB-LplAW37V (other)", "chain": "ILWHEMWHEGLEEASRLYFGERNVKGMFEVLEPLHAMMERGPQTLKETSFNQAYGRDLMEAQEWCRKYMKSGNVKDLTQAWDLYYHVFRRISKSTLRLLISDSYDPWFNLAVEECIFRQMPATQRVLFLVRNADTVVIGRAQNPWKECNTRRMEEDNVRLARRSSGGGAVFHDLGNTCFTFMAGKPEYDKTISTSIVLNALNALGVSAEASGRNDLVVKTVEGDRKVSGSAYRETKDRGFHHGTLLLNADLSRLANYLNPDKKKLAAKGITSVRSRVTNLTELLPGITHEQVCEAITEAFFAHYGERVEAEIISPNKTPDLPNFAETFARQSSWEWNFGQAPAFSHLLDERFTWGGVELHFDVEKGHITRAQVFTDSLNPAPLEALAGRLQGCLYRADMLQQECEALLVDFPEQEKELRELSAWMAGAVR"}, "B3": {"name": "FRB-LplA (other)", "chain": "B2 chain with V130W"}}, "key": {"mCherry-FKBP-LAP1": {"molecular_target": "mCherry-FKBP-LAP1 (UniProt P62942 2-108)", "sequence (P62942 other isoform, or with tags, fused parts or gaps)": "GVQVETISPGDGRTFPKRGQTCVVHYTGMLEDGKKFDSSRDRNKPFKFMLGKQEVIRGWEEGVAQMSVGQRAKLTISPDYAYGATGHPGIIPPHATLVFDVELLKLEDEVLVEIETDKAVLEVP", "assay": "cell-based or functional assay"}, "FKBP-LAP1": {"molecular_target": "FKBP-LAP1 (UniProt P62942 1-108, limits assumed)", "sequence (P62942 other isoform, or with tags, fused parts or gaps limits assumed)": "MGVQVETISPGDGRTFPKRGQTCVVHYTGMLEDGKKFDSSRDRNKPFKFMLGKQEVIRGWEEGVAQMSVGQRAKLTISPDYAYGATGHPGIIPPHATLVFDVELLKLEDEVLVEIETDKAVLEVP", "assay": "cell-based or functional assay"}}, "note": "Positions count from the first letter of the chain named.", "data": [{"binder": "B1", "values": [{"measurement": "Km of the enzyme for LAP1 (HPLC assay, ligation of coumarin probe to purified FKBP-LAP1)", "setting": "FKBP-LAP1, P62942", "value": "681 ± 168", "unit": "µM"}]}, {"binder": "B2", "values": [{"measurement": "minimum concentration of mCherry-FKBP-LAP1 required for a signal-to-background ratio >2:1", "setting": "mCherry-FKBP-LAP1", "value": 6, "unit": "µM"}]}, {"binder": "B3", "values": [{"measurement": "+/- rapamycin signal-to-background ratio of lipoylation, anti-lipoic acid immunoblot, purified proteins at 10 µM each", "setting": "FKBP-LAP1", "value": "> 12 ratio (:1)"}, {"measurement": "signal-to-background ratio of lipoylation in COS7 cells (+/- 100 nM rapamycin), cell lysis and immunoblot", "setting": "FKBP-LAP1", "value": "15 ratio (:1)"}, {"measurement": "signal-to-noise ratio of lipoylation in COS-7 cells with 3 minutes of lipoic acid treatment", "setting": "FKBP-LAP1", "value": "2.5 ratio (:1)"}]}]}
